These results are taken from article doi:10.1101/2025.09.24.25335646 (medRxiv, 2025).

Assay [1] concerns the target A/New York/631/1996 H3N2 hemagglutinin head domain (HA1 43-309) (Influenza A virus A/New York/631/1996 …, strain). In words: crystal structure.
Assay [2] concerns the target A/California/07/2009 H1N1 hemagglutinin, recombinant HA used for negative-stain EM (Influenza A virus A/California/07/2009 …, UniProt C3W5X2, strain). Nature of the assay: negative-stain EM.

B1: Fab 49_C09 (Fab, V domains shown)
VH: QSTLKESGPTLVKPTETLTLTCTFSGFSLHTSGVGVGWIRQPPGKALECLALIYWNDDARYSPSLQSRLTITKDTSKNQVVLTMSNMDPVDTATYYCAHKGGGRDGYNSAAFDVWGQGTMVTVSS
VL: SYVLTQPPSVSVAPGQTARIPCGGNNIGMKTVHWYQQRPGQAPVVVVYDDSRRPSGIPERFSGSNSGNTATLTISRVEAGDEADYYCQVWDSSVNHWVFGGGTKLTVL
As for B1, the binding result in assay [1] is on record as “binds”.

B2: 49_C09 monoclonal antibody (IgG1) (antibody, V domains shown)
VH: B1 VH
VL: B1 VL
Take B2: in assay [2], the binding result is recorded as “binds”.

B3: Fab 3_H2 (Fab, V domains shown)
VH: QGTLKESGPAMVKPTQTLTLTCTFSGFSLDTSGMCVAWIRQPPGKALEWLALFDWDNNKYYSPSLKTRLNMSKGRSRNQVVLTMTNMDPVDTGTYYCARKVYGSFYYGMDVWGQGTTVTVSS
VL: DIVLTQSPATLSLSPGDSATLSCRASQDVSANLAWYQQKPGQAPRLVIYDATNRATGIPARFSGSGLGTDFTLTISSLEPEDFAVYYCQQRSNWPPVYTFGQGTKLEIK
As for B3, the binding result in assay [1] is “binds”.

B4: 3_H2 monoclonal antibody (IgG1) (antibody, V domains shown)
VH: B3 VH
VL: B3 VL
In the case of B4, the binding result in assay [2] was “binds”.
